Results from FireProtDB (doi:10.1021/bi010636i).
Where “and” joins values, the source holds several entries; their conditions need not be identical. Identical values can stand only once.

Conditions: pH 7, CD, transition: 2, reversible: yes, whole UniProt chain shown; for denaturant midpoint (higher = more stable): 25 °C, GdnHCl; for Tm: Thermal
[1] = Rattus norvegicus, potassium phosphate buffer

B1: Cytochrome b5 type B wild type, P04166 (protein)
chain: MATPEASGSGRNGQGSDPAVTYYRLEEVAKRNTAEETWMVIHGRVYDITRFLSEHPGGEEVLLEQAGADATESFEDVGHSPDAREMLKQYYIGDVHPNDLKPKDGDKDPSKNNSCQSSWAYWIVPIVGAILIGFLYRHFWADSKSS
With B1 the “denaturant midpoint (higher = more stable)” value [1] was 4.09 M and 4.03 M and the Tm [1] was 87 °C.

B2: Cytochrome b5 wild type, P00171 (protein)
chain: MAEESSKAVKYYTLEEIQKHNNSKSTWLILHYKVYDLTKFLEEHPGGEEVLREQAGGDATENFEDVGHSTDARELSKTFIIGELHPDDRSKITKPSESIITTIDSNPSWWTNWLIPAISALFVALIYHLYTSEN
In the case of B2, the “denaturant midpoint (higher = more stable)” value (Bos taurus, MOPS buffer) is reported as 2.99 M and 3.05 M and the Tm (Bos taurus, MOPS buffer) is reported as 73.1 °C.
